From PMC4894760 (Journal of controlled release : official journal of the …, 2016)

Target: recombinant human SDF1 (free SDF1) (human, UniProt P48061-2 22-89)
Assay: SPR

Sequence of recombinant human SDF1 (free SDF1) (P48061 22-89): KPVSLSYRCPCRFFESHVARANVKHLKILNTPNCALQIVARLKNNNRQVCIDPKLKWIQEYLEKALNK

B1: recombinant human CXCR4 (receptor, UniProt P61073 1-352, looked up)
chain: MEGISIYTSDNYTEEMGSGDYDSMKEPCFREENANFNKIFLPTIYSIIFLTGIVGNGLVILVMGYQKKLRSMTDKYRLHLSVADLLFVITLPFWAVDAVANWYFGNFLCKAVHVIYTVNLYSSVLILAFISLDRYLAIVHATNSQRPRKLLAEKVVYVGVWIPALLLTIPDFIFANVSEADDRYICDRFYPNDLWVVVFQFQHIMVGLILPGIVILSCYCIIISKLSHSKGHQKRKALKTTVILILAFFACWLPYYIGISIDSFILLEIIKQGCEFENTVHKWISITEALAFFHCCLNPILYAFLGAKFKTSAQHALTSVSRGSSLKILSKGKRGGHSSVSTESESSSFHSS
Kd: 0.3 nM
